We go through five molecules from patent US20220389113A1, “BINDING PROTEINS TO CUB DOMAIN-CONTAINING PROTEIN (CDCP1)” (COMMONWEALTH SCIENTIFIC AND INDUSTRIAL RESEARCH ORGANISATION, priority 2019, published 2022).

The target in experiment [1] is human CUB domain-containing protein 1 (CDCP1), expressed by cells (human) (UniProt Q9H5V8). Description: flow cytometry of TKCC05 cells, 5 µg/ml antibody, APC-conjugated anti-mouse secondary; number in the IgG column (paragraph 330 calls the numbers of the 10D7 column MFI). For orientation: Flow cytometry measures light scatter and fluorescence of single cells or particles in a stream.

Experiment [2] shares this target. Description: flow cytometry of TKCC10 cells, 5 µg/ml antibody, APC-conjugated anti-mouse secondary; number in the IgG column (paragraph 330 calls the numbers of the 10D7 column MFI).
For experiment [3] the target is unchanged. Description: flow cytometry of PANC-1 cells, 5 µg/ml antibody, APC-conjugated anti-mouse secondary; number in the IgG column (paragraph 330 calls the numbers of the 10D7 column MFI).
Experiment [4] has the same target. Description: flow cytometry of TKCC02 cells, 5 µg/ml antibody, APC-conjugated anti-mouse secondary; number in the IgG column (paragraph 330 calls the numbers of the 10D7 column MFI).
For the next experiment, the system named is CDCP1^GFP in HEY cells. Description: Live-cell spinning-disk confocal microscopy of HEY-CDCP1^GFP cells. The class given is cell-based. Conditions: dasatinib 200 nM pre-treatment. The method, then: Live-cell spinning-disk confocal imaging was performed as described (Stehbens S J, et al., (2014) 16(6):561-73.) on an environmentally controlled Nikon TI inverted microscope (Nikon, New York) equipped with a Borealis-modified Yokogawa CSU-X1 confocal head (Spectral Applied Research, Ontario Canada) and a Clara cooled interline charge-coupled device (CCD) camera (Andor Technology, Belfast, United Kingdom). Dynamics of fluorescent proteins were imaged at 37° C. using a 60×1.49 NA objective (Nikon) with imaging of CDCP1^GFP internalization induced by 10D7^pH performed at ˜1 frame/sec. Image analysis and quantification was performed using Imaris 7.1 software (Bitplane, Zurich, Switzerland) (Morton J P, et al., (2010) 139(1):292-303.). Briefly, the Spots creation wizard automatically subtracted background and detected CDCP1^GFP puncta which were filtered for analysis based on threshold values above 20 for ‘quality’ defined as the intensity at the centre of the puncta, Gaussian filtered by […] (Doyon J B, et al., (2011)13(3):331-7.). Puncta were tracked over sequential frames using the Autoregressive motion particle-tracking algorithm. […] Quantification of track length during the period 0-5 min was determined from the 100 tracks with the highest velocity in each experimental group. […]

Experiment [5] concerns the target T1, recombinant CDCP1-ECD, spanning residue 30 to 665 (human, UniProt Q9H5V8 30-665).
T1 construct: Recombinant protein described in Chen Y et al. 2017; also called CDCP1 extracellular domain (ECD)
T1 sequence: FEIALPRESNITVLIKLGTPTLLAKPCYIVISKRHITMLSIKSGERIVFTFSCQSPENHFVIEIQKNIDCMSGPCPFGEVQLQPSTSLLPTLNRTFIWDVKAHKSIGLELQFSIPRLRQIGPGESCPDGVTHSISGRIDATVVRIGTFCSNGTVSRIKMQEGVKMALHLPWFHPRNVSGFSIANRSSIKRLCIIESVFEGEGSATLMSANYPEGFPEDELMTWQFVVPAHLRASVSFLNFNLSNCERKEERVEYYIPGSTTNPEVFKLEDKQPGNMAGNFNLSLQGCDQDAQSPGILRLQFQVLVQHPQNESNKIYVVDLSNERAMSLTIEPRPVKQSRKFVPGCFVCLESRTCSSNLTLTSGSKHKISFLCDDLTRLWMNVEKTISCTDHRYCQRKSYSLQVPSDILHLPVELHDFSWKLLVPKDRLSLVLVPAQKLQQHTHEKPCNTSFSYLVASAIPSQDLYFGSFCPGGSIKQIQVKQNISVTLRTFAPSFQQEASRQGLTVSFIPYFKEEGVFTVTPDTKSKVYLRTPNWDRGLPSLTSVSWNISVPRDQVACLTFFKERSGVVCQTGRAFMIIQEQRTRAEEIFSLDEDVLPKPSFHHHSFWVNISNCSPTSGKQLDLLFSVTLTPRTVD
Description: SPR, Biacore T200, antibody captured via Protein G, CDCP1-ECD analyte; reference 41-2.

Experiment [6] addresses T1, recombinant CDCP1-ECD, spanning residue …. Description: SPR (Biacore T200), antibody captured via Protein G on a CM5 chip, CDCP1-ECD 1.56 to 50 nM as analyte, 25 °C. On the technique in general: In SPR one partner is held on a chip, and binding of the other changes the refractive index at the surface.
For experiment [7] the target is unchanged. Description: SPR, Biacore T200, antibody captured via Protein G on CM5 chip, CDCP1-ECD analyte 50 to 1.56 nM, 25 C.
The next experiment deals with TKCC05 cells. Description: Confocal microscopy of TKCC05 cells treated with 10D7-Qdot. The class given is cell-based, human. The method, then:
Labelling of antibody 10D7 with fluorescent Qdot 625 probes was performed using a kit supplied by the manufacturer. TKCC05 cells were grown on poly-Lysine treated […] chamber slides (DKSH, Hallam, Australia) until 70% confluent then incubated with 10D7-Qdot. After 5, 10 and 120 min cells were fixed with 4% paraformaldehyde for 15 min at room temperature (RT), washed with PBS, then incubated with DAPI to highlight cell nuclei and Alexa Fluor 488 phalloidin to highlight cell cytoplasms (30 min at RT). Imaging was performed on a Nikon/Spectral Spinning Disc Confocal microscope.
To assess the impact of antibody 10D7 on CDCP1 expressed by PDAC, the inventors performed confocal microscopy and western blot analysis of patient-derived PDAC cells treated with this antibody for defined periods of time. […] Western blot analysis confirmed that 10D7 induces rapid transient tyrosine phosphorylation of CDCP1-ATF in TKCC05 cells and CDCP1-FL in TKCC10 cells, while Src was also transiently tyrosine phosphorylated in these cells in response to 10D7 (FIG. 11B). […] The data are consistent with CDCP1-ATF remaining tethered to the plasma membrane likely via CDCP1-CTF and indicate that intact and cleaved CDCP1 can be functionally targeted with antibody 10D7 in PDAC cells. Thus, antibody 10D7 is effective at targeting uncleaved as well as cleaved CDCP1 that are present on the surface of cancer cells.

Experiment [8] addresses T2, human CUB domain-containing protein 1 (CDCP1), expressed by cells (human, UniProt Q9H5V8 30-836).
T2 construct: also called CDCP1-FL; CD318
T2 sequence: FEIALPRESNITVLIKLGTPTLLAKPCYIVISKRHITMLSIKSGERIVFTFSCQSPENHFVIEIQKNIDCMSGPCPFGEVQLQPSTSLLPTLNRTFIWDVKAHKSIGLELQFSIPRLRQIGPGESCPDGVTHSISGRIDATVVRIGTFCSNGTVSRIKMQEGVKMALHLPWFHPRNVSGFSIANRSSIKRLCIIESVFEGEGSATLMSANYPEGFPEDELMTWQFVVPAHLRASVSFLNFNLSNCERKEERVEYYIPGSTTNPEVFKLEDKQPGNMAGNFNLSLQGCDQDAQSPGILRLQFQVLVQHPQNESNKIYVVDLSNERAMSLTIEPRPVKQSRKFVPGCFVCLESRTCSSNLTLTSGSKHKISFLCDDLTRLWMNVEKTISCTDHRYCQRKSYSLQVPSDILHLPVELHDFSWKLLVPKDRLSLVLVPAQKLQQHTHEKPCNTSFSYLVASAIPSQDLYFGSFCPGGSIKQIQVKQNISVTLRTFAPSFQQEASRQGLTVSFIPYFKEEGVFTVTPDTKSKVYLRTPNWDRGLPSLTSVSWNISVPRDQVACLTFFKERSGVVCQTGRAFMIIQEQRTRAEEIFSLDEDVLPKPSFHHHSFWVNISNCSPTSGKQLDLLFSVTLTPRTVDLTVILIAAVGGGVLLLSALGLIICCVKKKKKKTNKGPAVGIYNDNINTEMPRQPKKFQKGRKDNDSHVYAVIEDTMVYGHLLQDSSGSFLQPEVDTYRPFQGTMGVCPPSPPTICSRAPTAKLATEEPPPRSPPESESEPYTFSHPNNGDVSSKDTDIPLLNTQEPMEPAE
Description: summary of co-IP, SEC and reducing/non-reducing Western blots. For orientation: Immunoblotting shows a protein as a band on a membrane.

With IgG (antibody), the MFI amounted to 234 in experiment [1], 133 in experiment [2], 202 in experiment [3] and 216 in experiment [4].

`Cc1nc(Nc2ncc(C(=O)Nc3c(C)cccc3Cl)s2)cc(N2CCN(CCO)CC2)n1` [dasatinib]: the “reduction of CDCP1^GFP track length in response to 10D7” value with CDCP1^GFP in HEY cells is “about 80%”.

B1: anti-CDCP1 mouse monoclonal antibody 10D7 (antibody, V domains shown)
VH: EVQLQQFGAELVKPGASVKISCKASGYSFSDFNIEWLKQSHGKSLEWIGDINPNYDSTNYNQKFKGRATLTVDKSSSTAYMEVRSLTSEDTAVYYCARLGYGYAMDYWGQGTSVTVSS
VL: NIVMTQSPQSMSMSVGERVTLSCKASENVGAYVSWFQQKPDQSPKLLILAASNRYTGVPARFIGSGSATDFTLTISSVQAEDLADYHCGQSYTYPYTFGGGTKLEIKR
notes: also called mAb 10D7; mouse 10D7 antibody
One may read the koff as the first-order rate constant of dissociation. One may read the kon as the rate constant with which the complex forms. One may read the Kd as the free concentration of one partner at which half of the binding sites on the other are occupied at equilibrium, for simple one-to-one binding. B1: the “fold stronger KD than 41-2” value in [5] stood at 2.7 fold. In addition, in experiment [6], the koff came to 0.000441 s⁻¹ and the kon is 1e+06 M⁻¹ s⁻¹. The Kd in [7] stood at 0.44 nM.

B2: 10D7-Qdot (conjugate)
VH: B1 VH
VL: NIVMTQSPQSMSMSVGERVTLSCKASENVGAYVSWFQQKPDQSPKLLILAASNRYTGVPARFIGSGSATDFTLTISSVQAEDLADYHCGQSYTYPYTFGGGTKLEIKRADAAPTVS
As to B2, the “time until apparent on the plasma membrane” value with TKCC05 cells was at most 5 min. Further, the internalization of antibody result in the experiment with TKCC05 cells (after 120 min) is “largely internalized”.

B3: CDCP1 amino-terminal fragment (CDCP1-ATF), 65 kDa (receptor)
chain: FEIALPRESNITVLIKLGTPTLLAKPCYIVISKRHITMLSIKSGERIVFTFSCQSPENHFVIEIQKNIDCMSGPCPFGEVQLQPSTSLLPTLNRTFIWDVKAHKSIGLELQFSIPRLRQIGPGESCPDGVTHSISGRIDATVVRIGTFCSNGTVSRIKMQEGVKMALHLPWFHPRNVSGFSIANRSSIKRLCIIESVFEGEGSATLMSANYPEGFPEDELMTWQFVVPAHLRASVSFLNFNLSNCERKEERVEYYIPGSTTNPEVFKLEDKQPGNMAGNFNLSLQGCDQDAQSPGILRLQFQVLVQHPQNESNKIYVVDLSNERAMSLTIEPRPVKQSR
notes: Product of proteolytic cleavage of CDCP1
Turning to B3, the binding result in experiment [8] is given as “binds”.
